Assay results published in patent US20140031259A1.

Columns and labels:
[1] = target: AKT1 kinase domain (WT) fused to the Gal4 DNA binding domain (UniProt P04386); assay: cell-based or functional assay
[2] = target: AKT1 D323H kinase domain fused to the Gal4 DNA binding domain (UniProt P04386); assay: cell-based or functional assay

| Substance | luciferase reporter interaction signal in mammalian 2-hybrid assay, compared to WT-PH/WT-KD or E17K-PH/WT-KD [1] | luciferase reporter interaction signal in mammalian 2-hybrid assay, compared to WT-PH/WT-KD or E17K-PH/WT-KD [2] |
| --- | --- | --- |
| AKT1 L52R PH domain fused to the VP16 activation domain (from UniProt P31749 5-108) | 50 % reduction | – |
| AKT1 PH domain (WT) fused to the VP16 activation domain (from UniProt P31749 5-108) | – | 50 % reduction |
